Test [1] addresses T1, PI3KC2α^ΔN+ΔPX−C2 WT (mouse PI3KC2α amino acids 377–1,400) (mouse, UniProt Q61194 377-1400).
T1 construct: Phosphatidylinositol 3-kinase type 2α (PI3KC2α), mouse, amino acids 377-1,400; lacks the disordered N-terminal region and the distal PX and C-C2 domains; Cloned into pFL10His; The purification paragraph names PI3KC2α^ΔN, ^ΔN+ΔC−C2, ^core 'and related mutants'; also called PI3KC2α^ΔN+ΔPX−C2 Wild-type (WT); source: Sf21 insect cells (baculovirus), purified (Nickel NTA, TEV cleavage, Superdex 200)
T1 sequence (looked up): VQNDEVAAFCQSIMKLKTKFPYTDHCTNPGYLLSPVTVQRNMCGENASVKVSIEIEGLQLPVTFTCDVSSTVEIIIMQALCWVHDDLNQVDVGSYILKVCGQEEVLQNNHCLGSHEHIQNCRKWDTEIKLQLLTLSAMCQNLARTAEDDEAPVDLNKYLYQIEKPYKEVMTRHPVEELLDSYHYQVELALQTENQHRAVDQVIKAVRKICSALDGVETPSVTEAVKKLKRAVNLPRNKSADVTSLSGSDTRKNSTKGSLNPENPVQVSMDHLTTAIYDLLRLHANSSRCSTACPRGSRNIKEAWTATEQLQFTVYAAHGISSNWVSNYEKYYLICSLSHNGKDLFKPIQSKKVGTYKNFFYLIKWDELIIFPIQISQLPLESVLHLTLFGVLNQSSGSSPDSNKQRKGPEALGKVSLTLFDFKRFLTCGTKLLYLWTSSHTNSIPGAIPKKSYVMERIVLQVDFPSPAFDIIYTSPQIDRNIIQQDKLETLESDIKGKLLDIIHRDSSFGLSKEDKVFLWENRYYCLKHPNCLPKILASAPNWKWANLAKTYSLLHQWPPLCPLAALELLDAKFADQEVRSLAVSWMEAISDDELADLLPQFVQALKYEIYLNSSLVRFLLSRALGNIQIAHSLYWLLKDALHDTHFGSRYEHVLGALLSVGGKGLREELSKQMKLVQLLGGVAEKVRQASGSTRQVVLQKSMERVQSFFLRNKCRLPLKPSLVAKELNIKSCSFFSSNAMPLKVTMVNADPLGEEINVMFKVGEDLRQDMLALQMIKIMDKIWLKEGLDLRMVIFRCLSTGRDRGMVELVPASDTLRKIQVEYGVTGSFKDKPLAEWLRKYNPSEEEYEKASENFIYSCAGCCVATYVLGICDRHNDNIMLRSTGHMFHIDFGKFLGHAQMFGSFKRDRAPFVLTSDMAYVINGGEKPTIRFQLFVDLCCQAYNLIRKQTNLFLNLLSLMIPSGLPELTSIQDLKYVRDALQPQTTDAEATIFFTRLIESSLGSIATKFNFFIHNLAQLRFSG
In words: pull-down; 10 μg immobilized GST fusion protein as bait, 200 μg PI3KC2α^ΔN+ΔPX−C2 WT or RBD mutant in 500 μl binding buffer (20 mM Tris, pH 7.5, 100 mM NaCl), 1 h at 4 °C, three washes; SDS-PAGE and Coomassie blue staining, quantified with ImageJ. The note with it: both partners purified.

Test [2] concerns the target T2, PI3KC2α^ΔN+ΔPX−C2 RBD mutant (K426A, W458A, D461A, D462A) (mouse, UniProt Q61194 377-1400, K426A | W458A | D461A | D462A).
T2 construct: Phosphatidylinositol 3-kinase type 2α (PI3KC2α), mouse, amino acids 377-1,400, with four alanine substitutions in the RBD; source: Sf21 insect cells (baculovirus), purified (Nickel NTA, TEV cleavage, Superdex 200)
T2 sequence (looked up): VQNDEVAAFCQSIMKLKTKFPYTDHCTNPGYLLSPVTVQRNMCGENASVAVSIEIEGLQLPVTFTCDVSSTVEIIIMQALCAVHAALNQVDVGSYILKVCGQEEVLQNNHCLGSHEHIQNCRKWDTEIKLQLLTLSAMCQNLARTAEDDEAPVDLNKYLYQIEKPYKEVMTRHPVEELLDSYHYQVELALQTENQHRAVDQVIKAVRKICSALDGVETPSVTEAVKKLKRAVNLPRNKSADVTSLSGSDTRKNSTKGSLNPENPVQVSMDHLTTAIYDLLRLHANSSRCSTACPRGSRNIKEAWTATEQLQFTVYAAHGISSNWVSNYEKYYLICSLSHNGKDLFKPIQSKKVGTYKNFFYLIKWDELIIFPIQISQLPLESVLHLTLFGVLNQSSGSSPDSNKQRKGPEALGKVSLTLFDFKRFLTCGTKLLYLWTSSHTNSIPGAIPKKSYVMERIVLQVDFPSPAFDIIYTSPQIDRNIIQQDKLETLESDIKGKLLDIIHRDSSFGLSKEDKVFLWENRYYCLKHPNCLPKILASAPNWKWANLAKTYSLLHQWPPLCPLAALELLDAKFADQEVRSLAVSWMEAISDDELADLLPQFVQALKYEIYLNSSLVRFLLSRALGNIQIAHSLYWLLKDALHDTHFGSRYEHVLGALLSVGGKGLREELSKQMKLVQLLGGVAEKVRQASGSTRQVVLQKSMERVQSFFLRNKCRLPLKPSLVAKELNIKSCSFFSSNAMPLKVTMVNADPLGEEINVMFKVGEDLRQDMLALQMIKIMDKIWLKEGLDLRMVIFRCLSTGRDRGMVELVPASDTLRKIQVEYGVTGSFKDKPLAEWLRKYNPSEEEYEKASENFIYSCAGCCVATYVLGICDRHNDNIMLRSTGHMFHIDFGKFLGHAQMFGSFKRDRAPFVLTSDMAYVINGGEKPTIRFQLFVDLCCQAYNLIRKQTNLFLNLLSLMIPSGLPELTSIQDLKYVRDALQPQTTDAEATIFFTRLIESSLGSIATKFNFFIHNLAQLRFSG
The test is described as above. The note with it: both partners purified.

B1: GST-distal C2 (PI3KC2α amino acids 1,561–1,686) (domain or fragment, mouse, UniProt Q61194 1561-1686, looked up)
chain: GAVKLSVSYRNGTLFIMVMHIKDLVTEDGADPNPYVKTYLLPDTHKTSKRKTKISRKTRNPTFNEMLVYSGYSKETLRQRELQLSVLSAESLRENFFLGGITLPLKDFNLSKETVKWYQLTAATYL
notes: PI3KC2α, mouse, C-terminal (distal) C2 domain, amino acids 1,561-1,686; also called GST-C2; GST-tagged C2; source: E. coli (pGEX-4T-1), immobilized GST fusion protein
With B1, the binding result in test [1] and in test [2] was “binds” in each case.

Values taken from article PMC8930771, “Structural basis of phosphatidylinositol 3-kinase C2α function” (Nature Structural & Molecular Biology, 2022).
